T1: soluble and secreted FUT8 (sFUT8) enzyme (aa 87-575; UniProtKB #Q9BYC5) with C-terminal polyhistidine tag (UniProt Q9BYC5 87-575)
T1 sequence: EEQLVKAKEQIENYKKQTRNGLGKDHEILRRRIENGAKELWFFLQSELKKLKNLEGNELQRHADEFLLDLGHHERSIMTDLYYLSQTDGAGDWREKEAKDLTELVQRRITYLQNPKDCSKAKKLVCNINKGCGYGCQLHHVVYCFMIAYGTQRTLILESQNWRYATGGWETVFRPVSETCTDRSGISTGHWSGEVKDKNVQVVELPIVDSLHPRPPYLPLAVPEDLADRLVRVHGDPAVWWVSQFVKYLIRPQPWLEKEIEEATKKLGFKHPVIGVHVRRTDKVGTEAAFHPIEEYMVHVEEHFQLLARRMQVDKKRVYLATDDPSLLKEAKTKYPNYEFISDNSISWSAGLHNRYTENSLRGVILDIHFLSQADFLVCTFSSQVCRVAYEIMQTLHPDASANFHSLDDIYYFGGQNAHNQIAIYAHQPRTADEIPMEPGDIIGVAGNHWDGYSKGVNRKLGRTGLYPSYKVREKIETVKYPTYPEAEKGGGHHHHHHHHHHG


Each binder was assayed against T1, soluble and secreted FUT8 (sFUT8) … (assay: cell-based or functional assay).

FUT8 enzymatic activity (% inhibition) [%]	Binder
87	anti-FUT8 monoclonal antibody 5C9 (hybridoma) (antibody, V domains shown) VH: QVQLKESGPGLVAPSQSLSITCTVSGFSLTGYGVNWVRQPPGKGLEWLGTIWGDGSTDYNSALKSRLSISKDNSKTQVFLKMHSLQTDDTAIYYCARGGYDDYFGYAMDYWGQGTSVTVSS VL: DIVMTQSQKFMSTVVGDRVSVTCKASQNVGTNVAWYQQKPGQSPKALIYSASYRYSGVPDRLTGSGSGTDFTLTFSYVQSEDLAEYFCQQYYTYPYTFGGGTKLEIK
60	anti-FUT8 monoclonal antibody 1H9 (hybridoma) (antibody, V domains shown) VH: EVQLQQSGPELVKPGASVKMSCKASGYIFTDYVMHWVKQSNGKSLEWIGYINPYNDYSNYNQKFKGKATLTVDKSSNTAYMQLNSLTSEDSAVYFCARSGDVWLAYWGQGTLVTISA VL: DIVLTQSPASLAISLGQRATISCRASKSVSTSGYSYMHWYQQKPGQPPRLLIYLASNLESGVPARFSGSGSGTDFTLNIHPVEEEDGATYYCQHSRELPWTFGGGT
82	anti-FUT8 monoclonal antibody 1D2 (hybridoma) (antibody, V domains shown) VH: QVQLKESGPGLVAPSQSLSITCTVSGFSLTGYGVNWVRQPPGKGLEWLGMIWGDGSTDYNSALKSRLSISKDNSKSQVFLKMNSLQTDDTASYYCARDFYDGYLYAMDYWGQGTSVTVSSAS VL: DIVMTQSQKFMSTSLGDRVSVTCKASQNVGSYVAWYQQKPGQSPKALIYSASYRYSGVPDRFAGSGSGTDFTLTISNVQSEDLAEYFCQQYYTYPYTFGGGTWSTRLASWAFRSL
